# Results published in patent US7977317B2, “Compositions and methods for modulating blood-brain barrier transport” (Raptor Pharmaceutical Inc., priority 2001, dated 2011).
# What was measured:
# BBCEC monolayers = assay: Transcytosis across BBCEC monolayers (in vitro BBB model); assay type: cell-based, bovine
# Text: FIG. 10 assesses the ability of several agents to interfere with p97 transyctosis. FIG. 10a, transcytosis of I125-P97 was compared in the presence of cold p97 (5 micromolar), Lf (5 micromolar), and Tf (5 micromolar). […] FIG. 10c, RAP, a known poly-peptide inhibitor of the LDL-Receptor family was applied to the cells (25 micrograms/ml).
# FIG. 11 examines the accumulation and transcytosis of p97. FIG. 11a, of [^125I]-p97, [^125I]-BSA and [^125I]-holo-transferrin one hour after i.v. injection. The radioactivity in brain was compared between the three compounds. (n=3); FIG. 11b, Accumulation of p97 and transferrin into the mouse brain parenchyma. In situ brain perfusion was performed with human [^125I]-p97 or [^125I]-holo-transferrin at a final concentration of 10 nM via a catheter inserted in the right common carotid artery. The volume of distribution (VD) of [^125I]-proteins were obtained in the whole brain homogenate (white bars), in brain capillaries (solid bars) and in brain parenchyma (hatched bars) after isolation of the right hemisphere and capillary depletion. Results were obtained for p97 (n=10) and for holo-transferrin (n=6); FIG. 11c, Transcytosis of p97 across BBCEC monolayers. Transcytosis experiments were performed 37° C. (open circles) and 4° C. (closed circles) with BBCEC monolayers. [^125I]-p97 (1 mg/ml) was added to the upper side of the cell-covered filter. One representative experiment is shown (n=4); FIG. 11d, Preferential transport of p97 across the BBCEC monolayers. Apical-to-basal and basal-to-apical transport of [^125I]-p97 (25 nM) was measured for 2 hrs at 37° C. At the end of the experiment, [^125I]-p97 was assessed in the lower or upper chambers of each well by TCA precipitation (n=4).
# FIG. 13 illustrates the transcytosis and accumulation of p97 and transferrin in BBCEC monolayers. FIG. 13a, Transcytosis experiments were performed at 37° C. (solid bars) or 4° C. (white bars). [^125I]-p97 or bovine [^125I]-holo-transferrin (1 mg/ml) was added to the upper side of the cell-covered filter. At the end of the experiment, radiolabelled proteins were measured in the lower chamber of each well by TCA precipitation (n=4). Controls were also performed at 37° C. with denatured [^125I]-p97 or bovine [^125I]-holo-transferrin boiled for 30 min (grey bars) (n=2); FIG. 13b, Biospecific interaction analysis was performed with native or boiled p97 for the indicated times. MAb L235 (5 μg) was immobilized on a sensor chip (SM5) using standard procedures incorporating NHS, EDC and ethanolamine. Native and boiled p97 (5 to 30 min) diluted at 1 mg/ml in Ringer/Hepes was cooled and injected into the BIAcore. The surface plasmon resonance response obtained for native p97 and boiled p97 was plotted (in relative units (RU)) as a function of time; FIG. 13c, The accumulation of both proteins into BBEC cells were also measured. Briefly, after incubation at 37° C. (solid bars) or 4° C. (white bars) with either [^125I]-protein, cells were washed four times with cold PBS. Accumulation of both denatured proteins (grey bars) was also measured at 37° C. Filters were then removed, and the radioactivity associated with the cells was quantified (n=3).
# FIG. 14 illustrates the stability of p97 and integrity of the BBCEC monolayers following p97 transcytosis. FIG. 14a, Transcytosis experiments were performed at 37° C. and 4° C. by adding p97 (1 mg/ml) to the upper compartment. At the end of the experiment, 50 μl from each lower chamber was used for SDS-polyacrylamide gel electrophoresis. After electrophoresis, the gels were stained with Coomassie Blue. A standard curve was also made with known amounts of recombinant p97 (0-2 μg); FIG. 14b. The gels were dried and scanned to quantify the amount of intact p97 that crossed the BBCEC monolayers at 37° C. and 4° C. (n=3); FIG. 14c, Effect of p97 on sucrose permeability of BBCE cell monolayers co-cultured with astrocytes. […]
# LRP1B = assay: RT-PCR after p97 and RAP treatments in U-87 cells: LRP1B; assay type: cell-based, human; details: RT-PCR
# Protocol: FIG. 34. Effect of p97 and RAP treatments in U-87 cells. A. Cells (2×10^5) were plated onto six-multiwell microplates and grown at 37° C. under 5% CO2 with optimal culture medium supplemented with serum for 4 days. Treatment was performed in serum free medium for 72 hours. RNA isolation and RT-PCR were performed as described in the Examples. B. LRP/LRP1B was immunodetected in cells lysates as described in the Examples. […] (N=2 for p97 treatment), (n=1 for RAP treatment)
# FIG. 35. Effect of p97 and RAP treatments in U-87 cells (RT-PCR). Cells (2×10^5) were plated onto six-multiwell microplates and grown at 37° C. under 5% CO2 with optimal culture medium supplemented with serum for 4 days. Treatment was performed in serum free medium for 72 hours. RNA isolation and RT-PCR were performed as described in the Examples. The amplified PCR products were electrophoresed on a 2% agarose gel and visualized under ultraviolet light. (n=2 for p97), (n=1 for RAP)
# RNA extraction. Cells in six-wells plate or in 75 cm^2 plastic tissue culture flasks were grown at 37° C. under 5% CO2 with optimal culture medium to 80-90% confluence. Total cellular RNA was preserved in Trizol (Gibco BRL, Burlington, ON). The solution are frozen at −80° C. until extraction. The solution was defroze and mixed with 5:1 chloroform for 3 minutes at room temperature. The suspension was centrifugated at 12000 g at 4° C. […]
# LDL-R = LDL-R (Homo sapiens, UniProt P01130); details: Tables 1-3; cited from earlier work
# LRP = LRP (Homo sapiens, UniProt Q07954); details: Tables 1-3; cited from earlier work
# Megalin = Megalin (Homo sapiens, UniProt P98164); details: Tables 1-3; cited from earlier work
# Megalin, sequence (P98164 26-4655, species assumed): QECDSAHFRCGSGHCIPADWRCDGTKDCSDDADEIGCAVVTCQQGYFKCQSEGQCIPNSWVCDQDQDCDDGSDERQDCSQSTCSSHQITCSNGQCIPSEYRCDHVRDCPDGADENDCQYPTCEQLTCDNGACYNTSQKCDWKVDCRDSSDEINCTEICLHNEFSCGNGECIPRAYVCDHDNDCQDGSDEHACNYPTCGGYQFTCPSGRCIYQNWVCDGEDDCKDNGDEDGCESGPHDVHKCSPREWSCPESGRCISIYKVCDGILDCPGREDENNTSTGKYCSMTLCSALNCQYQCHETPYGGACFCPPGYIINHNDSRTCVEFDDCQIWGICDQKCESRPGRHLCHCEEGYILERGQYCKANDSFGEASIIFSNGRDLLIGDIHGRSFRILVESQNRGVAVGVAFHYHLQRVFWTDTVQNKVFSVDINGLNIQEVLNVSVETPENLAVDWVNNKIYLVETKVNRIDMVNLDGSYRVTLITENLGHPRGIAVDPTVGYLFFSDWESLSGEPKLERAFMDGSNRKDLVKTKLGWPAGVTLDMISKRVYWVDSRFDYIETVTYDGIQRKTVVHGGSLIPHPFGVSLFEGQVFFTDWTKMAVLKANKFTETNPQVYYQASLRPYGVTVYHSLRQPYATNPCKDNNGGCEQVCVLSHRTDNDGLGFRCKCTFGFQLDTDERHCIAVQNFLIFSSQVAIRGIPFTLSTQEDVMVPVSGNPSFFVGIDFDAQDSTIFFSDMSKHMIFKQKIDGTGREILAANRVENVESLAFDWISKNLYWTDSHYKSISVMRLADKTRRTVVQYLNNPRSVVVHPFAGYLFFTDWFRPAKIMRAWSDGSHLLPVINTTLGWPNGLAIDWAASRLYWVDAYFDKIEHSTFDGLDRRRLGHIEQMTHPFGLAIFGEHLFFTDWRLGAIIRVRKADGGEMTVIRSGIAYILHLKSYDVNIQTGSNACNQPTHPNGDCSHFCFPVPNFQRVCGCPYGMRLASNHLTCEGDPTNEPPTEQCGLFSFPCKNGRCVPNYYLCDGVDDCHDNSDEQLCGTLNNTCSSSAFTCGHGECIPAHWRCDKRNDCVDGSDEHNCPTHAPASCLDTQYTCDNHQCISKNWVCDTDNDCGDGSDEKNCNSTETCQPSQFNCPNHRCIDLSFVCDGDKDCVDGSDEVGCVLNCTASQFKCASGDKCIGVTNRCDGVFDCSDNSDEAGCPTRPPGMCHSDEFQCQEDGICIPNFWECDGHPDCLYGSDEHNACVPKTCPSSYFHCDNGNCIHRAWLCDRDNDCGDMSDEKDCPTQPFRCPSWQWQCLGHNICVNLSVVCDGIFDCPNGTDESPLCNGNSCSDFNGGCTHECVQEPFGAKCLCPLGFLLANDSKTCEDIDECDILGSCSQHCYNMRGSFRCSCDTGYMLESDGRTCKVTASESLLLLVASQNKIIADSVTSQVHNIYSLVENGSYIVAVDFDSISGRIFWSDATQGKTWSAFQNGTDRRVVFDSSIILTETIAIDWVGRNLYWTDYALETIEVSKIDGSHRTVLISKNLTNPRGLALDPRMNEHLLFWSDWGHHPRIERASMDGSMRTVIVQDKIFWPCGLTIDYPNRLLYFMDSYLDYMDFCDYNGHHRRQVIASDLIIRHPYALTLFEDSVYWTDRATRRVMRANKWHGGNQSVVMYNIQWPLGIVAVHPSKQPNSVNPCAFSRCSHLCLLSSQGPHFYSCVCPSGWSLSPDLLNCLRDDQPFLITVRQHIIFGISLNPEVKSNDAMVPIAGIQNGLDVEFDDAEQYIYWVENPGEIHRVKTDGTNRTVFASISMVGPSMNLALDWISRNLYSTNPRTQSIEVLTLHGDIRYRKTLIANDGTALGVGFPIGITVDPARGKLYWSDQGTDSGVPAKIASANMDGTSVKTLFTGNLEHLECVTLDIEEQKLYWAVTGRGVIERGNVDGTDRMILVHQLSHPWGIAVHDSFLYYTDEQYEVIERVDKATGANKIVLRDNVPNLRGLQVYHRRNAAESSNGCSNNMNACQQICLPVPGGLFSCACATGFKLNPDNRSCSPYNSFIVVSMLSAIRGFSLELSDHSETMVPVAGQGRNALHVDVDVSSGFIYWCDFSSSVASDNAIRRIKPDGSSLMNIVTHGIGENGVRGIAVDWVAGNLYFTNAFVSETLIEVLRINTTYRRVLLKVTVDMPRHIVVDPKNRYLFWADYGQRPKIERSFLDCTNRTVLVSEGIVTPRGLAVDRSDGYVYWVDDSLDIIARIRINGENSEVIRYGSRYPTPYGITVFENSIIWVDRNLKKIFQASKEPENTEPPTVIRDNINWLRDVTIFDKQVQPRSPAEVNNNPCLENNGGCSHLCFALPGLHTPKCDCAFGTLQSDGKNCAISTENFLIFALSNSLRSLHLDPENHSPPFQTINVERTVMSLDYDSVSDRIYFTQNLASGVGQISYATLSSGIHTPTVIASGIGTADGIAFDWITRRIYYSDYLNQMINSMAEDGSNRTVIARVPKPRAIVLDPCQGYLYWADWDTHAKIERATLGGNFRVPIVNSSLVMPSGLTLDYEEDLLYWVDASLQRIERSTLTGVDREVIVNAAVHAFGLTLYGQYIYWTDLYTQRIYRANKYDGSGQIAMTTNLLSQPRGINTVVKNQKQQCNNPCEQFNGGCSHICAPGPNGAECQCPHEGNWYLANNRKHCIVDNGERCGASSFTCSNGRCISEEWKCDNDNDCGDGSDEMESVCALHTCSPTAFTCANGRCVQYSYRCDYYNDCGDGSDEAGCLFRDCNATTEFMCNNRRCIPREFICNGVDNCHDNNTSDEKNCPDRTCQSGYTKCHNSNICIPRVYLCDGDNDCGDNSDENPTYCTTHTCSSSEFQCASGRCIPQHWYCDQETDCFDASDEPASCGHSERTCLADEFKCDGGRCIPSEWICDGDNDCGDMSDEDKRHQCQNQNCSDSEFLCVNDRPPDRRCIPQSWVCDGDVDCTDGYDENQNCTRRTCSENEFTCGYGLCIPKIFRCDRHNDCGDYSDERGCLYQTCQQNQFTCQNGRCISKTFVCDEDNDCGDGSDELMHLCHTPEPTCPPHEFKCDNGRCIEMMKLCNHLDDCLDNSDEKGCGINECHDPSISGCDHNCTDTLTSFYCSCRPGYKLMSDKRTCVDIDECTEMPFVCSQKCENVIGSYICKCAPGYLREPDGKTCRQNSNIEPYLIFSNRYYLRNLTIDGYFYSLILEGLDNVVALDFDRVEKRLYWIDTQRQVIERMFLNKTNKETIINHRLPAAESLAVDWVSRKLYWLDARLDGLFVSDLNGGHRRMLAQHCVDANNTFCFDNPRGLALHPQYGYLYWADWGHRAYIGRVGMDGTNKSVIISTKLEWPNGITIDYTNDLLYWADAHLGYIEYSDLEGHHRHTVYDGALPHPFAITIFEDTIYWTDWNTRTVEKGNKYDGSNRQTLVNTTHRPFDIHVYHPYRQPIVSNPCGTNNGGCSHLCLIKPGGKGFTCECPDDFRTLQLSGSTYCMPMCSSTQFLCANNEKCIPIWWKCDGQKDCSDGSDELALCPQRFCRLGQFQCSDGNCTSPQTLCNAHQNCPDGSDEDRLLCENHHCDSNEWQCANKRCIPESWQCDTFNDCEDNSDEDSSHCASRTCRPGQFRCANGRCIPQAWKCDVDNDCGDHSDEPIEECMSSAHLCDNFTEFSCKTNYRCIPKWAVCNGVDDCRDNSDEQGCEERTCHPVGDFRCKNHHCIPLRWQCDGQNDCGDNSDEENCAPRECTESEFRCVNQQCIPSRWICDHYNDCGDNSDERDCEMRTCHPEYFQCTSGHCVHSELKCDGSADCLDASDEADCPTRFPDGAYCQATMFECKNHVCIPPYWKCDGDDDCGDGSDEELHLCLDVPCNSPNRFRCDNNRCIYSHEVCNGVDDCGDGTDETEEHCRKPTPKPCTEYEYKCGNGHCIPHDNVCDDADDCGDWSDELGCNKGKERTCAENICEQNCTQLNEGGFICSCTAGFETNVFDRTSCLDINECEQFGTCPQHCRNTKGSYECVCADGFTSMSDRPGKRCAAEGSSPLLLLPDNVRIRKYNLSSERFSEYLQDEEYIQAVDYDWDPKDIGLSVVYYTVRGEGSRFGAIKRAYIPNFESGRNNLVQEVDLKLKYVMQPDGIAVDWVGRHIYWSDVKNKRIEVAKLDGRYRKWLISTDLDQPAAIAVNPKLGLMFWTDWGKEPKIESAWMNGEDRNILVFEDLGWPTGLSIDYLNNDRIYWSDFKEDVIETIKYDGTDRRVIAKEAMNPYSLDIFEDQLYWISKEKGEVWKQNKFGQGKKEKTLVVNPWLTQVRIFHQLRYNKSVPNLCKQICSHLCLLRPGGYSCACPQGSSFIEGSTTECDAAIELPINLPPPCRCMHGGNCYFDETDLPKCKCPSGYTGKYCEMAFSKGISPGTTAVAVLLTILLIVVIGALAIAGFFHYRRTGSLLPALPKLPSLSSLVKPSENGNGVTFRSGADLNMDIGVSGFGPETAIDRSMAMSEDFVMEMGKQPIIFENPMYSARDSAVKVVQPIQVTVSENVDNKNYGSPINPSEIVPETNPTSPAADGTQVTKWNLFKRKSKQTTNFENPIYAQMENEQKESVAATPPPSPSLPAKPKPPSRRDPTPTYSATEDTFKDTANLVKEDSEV
# VLDL-R = VLDL-R (Homo sapiens, UniProt P98155); details: Tables 1-3; cited from earlier work
substance,measurement,setting,value
"RAP: receptor-associated protein, a protein chaperone that regulates LRP; polypeptide inhibitor of the LDL-Receptor family",Effect on transcytosis of p97,BBCEC monolayers; RAP 25 micrograms/ml (FIG. 10c),significantly inhibited
same,Inhibition of p97 transcytosis by LRP ligands,"BBCEC monolayers; RAP (0.6 μM), BSA (5 μM), 2 h at 37° C. (FIG. 17A)",inhibition
same,Reduction of the initial rate of [125I]-p97 transport across BBCEC monolayers,BBCEC monolayers; recombinant RAP 25 μg/ml (FIG. 16b),more than 50%
same,Effect of RAP on the p97 effect on receptor expression,LRP1B,appears to antagonize the effect of p97
same,Binding to LDL-R,LDL-R,Yes
same,Binding to LRP,LRP,Yes
same,Binding to Megalin,Megalin,Yes
same,Binding to VLDL-R,VLDL-R,Yes
